Key:
[1] = target: Grb2 SH2 (UniProt P62993); assay: SH2 binding enrichment of the phosphorylated peptide, bacterial display (enrichment ratio); higher = better substrate or ligand; peptides without Tyr show the background
[2] = target: c-Src SH2; assay: as above
[3] = target: SHP2-C SH2; assay: as above
[4] = target: FGFR1 (UniProt P11362); assay: phosphorylation enrichment, bacterial display (enrichment ratio); higher = better substrate or ligand; peptides without Tyr show the background
[5] = tested on: Fer (mouse); assay: as above
[6] = target: EPHB1 (UniProt P54762); assay: as above
[7] = target: FGFR3 (UniProt P22607); assay: as above
Sequence of FGFR3 (P22607 whole entry, looked up): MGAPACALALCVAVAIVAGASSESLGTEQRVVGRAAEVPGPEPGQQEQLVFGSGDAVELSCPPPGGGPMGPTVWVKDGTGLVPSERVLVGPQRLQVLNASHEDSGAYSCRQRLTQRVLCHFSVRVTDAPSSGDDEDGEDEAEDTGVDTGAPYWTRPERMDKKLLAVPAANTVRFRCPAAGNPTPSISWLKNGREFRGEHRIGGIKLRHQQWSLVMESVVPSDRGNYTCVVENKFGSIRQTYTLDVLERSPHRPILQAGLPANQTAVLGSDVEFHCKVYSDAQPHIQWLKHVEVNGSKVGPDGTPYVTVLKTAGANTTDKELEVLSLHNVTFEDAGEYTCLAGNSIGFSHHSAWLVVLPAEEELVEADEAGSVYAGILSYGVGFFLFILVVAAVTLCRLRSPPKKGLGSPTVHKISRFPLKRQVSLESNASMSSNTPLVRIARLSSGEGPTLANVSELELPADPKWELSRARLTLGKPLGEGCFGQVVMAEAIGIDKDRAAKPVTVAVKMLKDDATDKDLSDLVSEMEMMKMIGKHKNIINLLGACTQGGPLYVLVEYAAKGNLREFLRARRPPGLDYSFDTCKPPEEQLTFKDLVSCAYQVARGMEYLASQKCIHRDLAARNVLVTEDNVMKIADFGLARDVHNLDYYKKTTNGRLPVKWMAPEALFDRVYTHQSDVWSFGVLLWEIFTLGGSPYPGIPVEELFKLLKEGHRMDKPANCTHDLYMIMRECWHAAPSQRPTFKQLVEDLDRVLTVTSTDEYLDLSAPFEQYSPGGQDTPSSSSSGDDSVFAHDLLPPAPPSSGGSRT

[8] = target: Fes (UniProt P07332); assay: as above
[9] = tested on: c-Abl (mouse); assay: as above
[10] = target: EPHB2 (UniProt P29323); assay: as above
Sequence of EPHB2 (P29323 whole entry, looked up): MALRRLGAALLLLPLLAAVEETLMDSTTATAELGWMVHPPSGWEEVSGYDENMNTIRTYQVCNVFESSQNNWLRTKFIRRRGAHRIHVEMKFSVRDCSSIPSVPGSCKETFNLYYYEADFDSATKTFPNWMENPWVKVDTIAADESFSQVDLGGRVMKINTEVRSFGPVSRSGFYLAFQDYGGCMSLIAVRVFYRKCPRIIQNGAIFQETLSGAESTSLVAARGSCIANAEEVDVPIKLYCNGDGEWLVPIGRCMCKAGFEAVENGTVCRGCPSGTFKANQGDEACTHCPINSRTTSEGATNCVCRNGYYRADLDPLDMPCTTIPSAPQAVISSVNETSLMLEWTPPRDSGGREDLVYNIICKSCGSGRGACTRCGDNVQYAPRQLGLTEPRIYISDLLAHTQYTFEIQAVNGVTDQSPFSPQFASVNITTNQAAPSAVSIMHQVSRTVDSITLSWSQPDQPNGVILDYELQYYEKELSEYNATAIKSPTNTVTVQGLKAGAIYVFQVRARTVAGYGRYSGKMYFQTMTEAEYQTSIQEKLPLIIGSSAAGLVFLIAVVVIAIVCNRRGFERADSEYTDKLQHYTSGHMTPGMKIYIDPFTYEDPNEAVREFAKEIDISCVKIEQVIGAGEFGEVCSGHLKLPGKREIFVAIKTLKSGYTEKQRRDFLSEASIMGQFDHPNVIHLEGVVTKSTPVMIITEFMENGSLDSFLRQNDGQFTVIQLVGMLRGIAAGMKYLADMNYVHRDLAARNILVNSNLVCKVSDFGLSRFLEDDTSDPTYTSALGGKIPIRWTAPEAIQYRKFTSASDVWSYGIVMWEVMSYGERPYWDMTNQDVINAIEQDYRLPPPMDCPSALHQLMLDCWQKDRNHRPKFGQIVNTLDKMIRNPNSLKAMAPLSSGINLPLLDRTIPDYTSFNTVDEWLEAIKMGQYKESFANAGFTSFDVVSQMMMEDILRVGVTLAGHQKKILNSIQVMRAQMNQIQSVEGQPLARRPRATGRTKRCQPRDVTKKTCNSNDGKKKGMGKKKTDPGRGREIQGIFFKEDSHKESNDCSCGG

[11] = tested on: AncSZ; assay: as above
[12] = target: Fyn (UniProt P06241); assay: as above
[13] = target: Jak2 (UniProt O60674); assay: as above
Sequence of Jak2 (O60674 whole entry, looked up): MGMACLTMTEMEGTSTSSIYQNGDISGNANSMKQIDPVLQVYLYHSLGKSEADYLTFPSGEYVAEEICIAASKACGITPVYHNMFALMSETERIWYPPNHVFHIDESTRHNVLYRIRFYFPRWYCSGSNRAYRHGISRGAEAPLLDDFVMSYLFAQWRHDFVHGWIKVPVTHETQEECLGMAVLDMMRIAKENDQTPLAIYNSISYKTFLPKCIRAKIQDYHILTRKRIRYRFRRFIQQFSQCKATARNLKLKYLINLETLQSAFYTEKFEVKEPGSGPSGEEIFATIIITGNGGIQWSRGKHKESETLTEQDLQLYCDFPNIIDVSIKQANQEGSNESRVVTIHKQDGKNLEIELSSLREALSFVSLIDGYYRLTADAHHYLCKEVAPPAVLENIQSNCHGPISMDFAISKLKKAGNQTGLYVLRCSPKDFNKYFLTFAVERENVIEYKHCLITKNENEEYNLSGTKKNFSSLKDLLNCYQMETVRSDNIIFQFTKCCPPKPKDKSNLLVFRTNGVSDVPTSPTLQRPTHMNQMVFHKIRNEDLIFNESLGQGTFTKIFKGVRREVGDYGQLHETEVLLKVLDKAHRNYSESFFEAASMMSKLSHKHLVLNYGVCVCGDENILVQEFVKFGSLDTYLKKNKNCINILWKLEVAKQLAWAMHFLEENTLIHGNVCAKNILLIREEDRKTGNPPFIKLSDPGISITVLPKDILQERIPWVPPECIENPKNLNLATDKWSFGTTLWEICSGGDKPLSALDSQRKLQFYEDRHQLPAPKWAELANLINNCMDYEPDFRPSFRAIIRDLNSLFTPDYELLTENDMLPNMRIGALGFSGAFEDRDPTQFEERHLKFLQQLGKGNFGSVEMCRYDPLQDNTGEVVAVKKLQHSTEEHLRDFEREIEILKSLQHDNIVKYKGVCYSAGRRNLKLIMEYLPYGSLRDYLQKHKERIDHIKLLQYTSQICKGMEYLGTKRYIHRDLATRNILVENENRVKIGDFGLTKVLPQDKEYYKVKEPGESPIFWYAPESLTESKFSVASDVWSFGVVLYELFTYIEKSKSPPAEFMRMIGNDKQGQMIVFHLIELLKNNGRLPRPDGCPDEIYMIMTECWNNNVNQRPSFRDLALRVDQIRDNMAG

[14] = target: Hck (UniProt P08631); assay: as above
[15] = target: MERTK (UniProt Q12866); assay: as above
Sequence of MERTK (Q12866 whole entry, looked up): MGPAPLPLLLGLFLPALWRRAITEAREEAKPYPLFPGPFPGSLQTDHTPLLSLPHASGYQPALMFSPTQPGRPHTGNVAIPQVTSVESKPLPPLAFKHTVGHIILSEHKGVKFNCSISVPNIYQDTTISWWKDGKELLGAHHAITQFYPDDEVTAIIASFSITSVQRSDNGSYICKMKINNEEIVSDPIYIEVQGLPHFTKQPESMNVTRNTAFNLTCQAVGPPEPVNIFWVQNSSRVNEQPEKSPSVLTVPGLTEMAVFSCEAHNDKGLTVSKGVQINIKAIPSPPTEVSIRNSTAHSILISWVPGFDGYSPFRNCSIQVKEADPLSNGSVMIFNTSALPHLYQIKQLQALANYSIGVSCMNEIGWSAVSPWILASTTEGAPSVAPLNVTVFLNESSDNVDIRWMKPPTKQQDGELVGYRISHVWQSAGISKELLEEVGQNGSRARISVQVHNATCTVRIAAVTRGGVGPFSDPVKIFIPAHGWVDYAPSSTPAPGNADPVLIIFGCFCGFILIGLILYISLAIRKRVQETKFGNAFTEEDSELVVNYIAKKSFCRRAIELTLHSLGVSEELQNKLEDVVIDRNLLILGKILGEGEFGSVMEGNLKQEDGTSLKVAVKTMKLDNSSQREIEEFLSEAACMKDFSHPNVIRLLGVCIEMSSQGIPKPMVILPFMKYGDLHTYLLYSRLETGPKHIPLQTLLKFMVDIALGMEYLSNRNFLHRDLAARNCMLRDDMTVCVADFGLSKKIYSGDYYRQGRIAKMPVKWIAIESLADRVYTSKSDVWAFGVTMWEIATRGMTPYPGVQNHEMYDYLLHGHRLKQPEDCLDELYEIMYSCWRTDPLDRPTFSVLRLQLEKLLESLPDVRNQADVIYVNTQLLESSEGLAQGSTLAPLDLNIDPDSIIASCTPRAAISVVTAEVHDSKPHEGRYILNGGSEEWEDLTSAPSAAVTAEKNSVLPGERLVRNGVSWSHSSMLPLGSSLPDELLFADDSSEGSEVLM

[16] = tested on: c-Src; assay: as above
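For SH2 binding enrichment of the phosphorylated peptide, bacterial display in this document: peptide library displayed on the E. coli surface as eCPX fusions, selected cells deep-sequenced, score is each peptide's frequency after selection divided by its frequency in the input.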
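For phosphorylation enrichment, bacterial display in this document: 11-residue human phosphosite peptides and single-mutation variants displayed on the E. coli surface, counted by deep sequencing, each peptide's frequency after selection divided by its frequency in the unselected input library; frequency after pTyr selection over input frequency; kinase dosed for 20-30% of maximal phosphorylation in three min.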

Sequence of FGFR1 (P11362 whole entry, looked up): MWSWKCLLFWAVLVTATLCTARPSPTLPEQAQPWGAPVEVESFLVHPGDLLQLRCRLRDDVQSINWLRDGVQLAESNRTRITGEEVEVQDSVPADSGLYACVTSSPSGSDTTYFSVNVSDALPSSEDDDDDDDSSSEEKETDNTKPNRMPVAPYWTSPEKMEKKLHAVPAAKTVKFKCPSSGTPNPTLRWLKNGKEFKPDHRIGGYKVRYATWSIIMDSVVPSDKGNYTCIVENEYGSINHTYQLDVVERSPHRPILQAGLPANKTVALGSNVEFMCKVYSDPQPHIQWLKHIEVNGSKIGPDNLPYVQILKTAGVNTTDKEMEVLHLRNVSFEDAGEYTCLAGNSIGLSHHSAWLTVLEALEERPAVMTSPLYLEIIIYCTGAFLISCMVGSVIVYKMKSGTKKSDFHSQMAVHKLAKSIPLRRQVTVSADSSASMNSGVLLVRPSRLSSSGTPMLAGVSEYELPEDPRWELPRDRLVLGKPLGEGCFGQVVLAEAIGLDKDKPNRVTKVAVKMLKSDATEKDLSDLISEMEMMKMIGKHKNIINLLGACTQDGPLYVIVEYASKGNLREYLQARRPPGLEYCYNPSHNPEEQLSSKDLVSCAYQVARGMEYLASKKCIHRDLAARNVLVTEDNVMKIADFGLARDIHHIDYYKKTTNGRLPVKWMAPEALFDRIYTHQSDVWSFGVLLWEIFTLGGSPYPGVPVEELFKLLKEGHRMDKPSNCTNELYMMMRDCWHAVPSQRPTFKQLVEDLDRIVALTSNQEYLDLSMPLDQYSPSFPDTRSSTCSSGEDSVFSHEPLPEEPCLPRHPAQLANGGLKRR
Sequence of Grb2 SH2 (P62993 whole entry, looked up): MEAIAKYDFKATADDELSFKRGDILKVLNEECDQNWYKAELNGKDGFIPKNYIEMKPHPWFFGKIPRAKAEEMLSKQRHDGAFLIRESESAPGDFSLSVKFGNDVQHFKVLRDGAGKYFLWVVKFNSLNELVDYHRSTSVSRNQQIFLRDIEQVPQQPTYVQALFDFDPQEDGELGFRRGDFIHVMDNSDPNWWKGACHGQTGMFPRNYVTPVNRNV

Sequence | SH2 binding enrichment [1] | SH2 binding enrichment [2] | SH2 binding enrichment [3] | phosphorylation enrichment [4] | phosphorylation enrichment [5] | phosphorylation enrichment [6] | phosphorylation enrichment [7] | phosphorylation enrichment [8] | phosphorylation enrichment [9] | phosphorylation enrichment [10] | phosphorylation enrichment [11] | phosphorylation enrichment [12] | phosphorylation enrichment [13] | phosphorylation enrichment [14] | phosphorylation enrichment [15] | phosphorylation enrichment [16]
GKTFTYHSVFF [ZNF80_Y200_R201H] | 0.89 | 0.655 | 0.645 | 0.618 | 0.655 | 0.602 | 0.904 | 1.25 | 1 | 0.547 | 1.31 | 0.596 | 1.3 | 0.592 | 0.46 | 0.999
RGRSTYFWPSP [GAGE12J_Y9_R13S_YF] | 0.557 | 0.491 | 0.524 | 0.49 | 0.504 | 0.468 | 0.615 | 0.564 | 0.711 | 0.621 | 0.669 | 0.511 | 0.673 | 0.824 | 0.947 | 0.505
ISRDVYSTDFF [NTRK2_Y702_M697I_YF] | 0.712 | 0.505 | 0.715 | 0.934 | 0.568 | 0.866 | 0.855 | 0.929 | 0.666 | 0.819 | 0.903 | 3.12 | 0.785 | 1.35 | 5.74 | 2.84
HFPFQYHRQLY [F12_Y53] | 1.27 | 1.28 | 2.15 | 0.449 | 0.725 | 0.583 | 0.865 | 1.28 | 0.508 | 0.572 | 1.03 | 0.59 | 0.723 | 0.656 | 0.566 | 0.471
DPMNTYARPAE [SGMS2_Y24_T21M] | 0.732 | 1.73 | 0.605 | 0.475 | 0.504 | 0.381 | 0.542 | 0.883 | 0.792 | 0.476 | 0.878 | 0.434 | 0.771 | 0.576 | 0.46 | 0.538
GVCKNYAEAKD [ALB_Y343_D338G] | 0.886 | 0.825 | 0.705 | 0.551 | 0.359 | 0.469 | 0.585 | 0.729 | 0.6 | 0.511 | 0.749 | 0.371 | 0.556 | 0.498 | 0.385 | 0.392
HDRNTYEKFLG [TF_Y666_YF] | 1.11 | 0.882 | 0.797 | 0.484 | 0.378 | 0.525 | 0.751 | 1.33 | 0.99 | 0.951 | 1.17 | 2.42 | 1.29 | 1.44 | 0.936 | 2.82
DGQFVYKLTDF [TBK1_Y153_S151F] | 0.859 | 0.481 | 0.773 | 0.498 | 0.739 | 0.467 | 0.649 | 1.01 | 0.482 | 0.587 | 1.06 | 2.44 | 0.799 | 0.832 | 0.366 | 2.32
CTTIHDNFMCN [TP53_Y234_Y234D_YF] | 0.949 | 0.895 | 0.605 | 0.516 | 0.465 | 0.544 | 0.592 | 0.898 | 0.631 | 0.512 | 0.841 | 0.441 | 0.849 | 0.54 | 0.37 | 0.436
WAKPEYTGGFK | 0.971 | 0.478 | 0.758 | 0.48 | 0.332 | 0.438 | 0.462 | 0.732 | 0.743 | 0.468 | 0.544 | 0.411 | 0.574 | 0.364 | 0.397 | 0.417
HFPDVYAREQL [ALX3_Y181_YF] | 0.832 | 0.56 | 0.682 | 0.55 | 0.561 | 0.619 | 0.514 | 1.04 | 0.667 | 0.703 | 0.713 | 0.588 | 0.616 | 0.722 | 0.408 | 0.91
QLCVNYPGGFT [PROS1_Y259_YF] | 0.73 | 0.538 | 0.613 | 0.698 | 0.692 | 0.792 | 0.904 | 1.61 | 0.835 | 0.697 | 1.45 | 0.675 | 0.907 | 0.85 | 0.552 | 0.37
SLTCTYSPALN [TP53_Y126_V122L] | 0.657 | 0.487 | 0.453 | 0.66 | 0.696 | 0.924 | 1.21 | 1.81 | 1.65 | 0.882 | 1.56 | 0.797 | 1.57 | 0.818 | 0.522 | 0.804
RYVYYYSYLLK [PTEN_Y178] | 1.09 | 0.857 | 1.39 | 4.48 | 1.09 | 2.55 | 3.85 | 1.82 | 1.83 | 1.64 | 1.74 | 1.15 | 2.76 | 1.99 | 5.99 | 2.48
YCGYSYDDIPD [TMEM230_Y112_R108C] | 0.988 | 10.6 | 1.43 | 1.53 | 1.95 | 0.818 | 1.57 | 1.34 | 0.926 | 0.954 | 2.47 | 0.932 | 1.36 | 0.799 | 1.03 | 1.75
TKHTFYKQPMF [GBA_Y451_D448H] | 1.04 | 0.941 | 1.13 | 0.539 | 0.44 | 0.429 | 0.482 | 0.769 | 0.522 | 0.558 | 1 | 0.478 | 0.49 | 0.475 | 0.441 | 0.377
AHAGEYGADAL [HBA1_Y25_E28D] | 0.708 | 0.448 | 0.61 | 0.392 | 0.312 | 0.401 | 0.41 | 0.653 | 0.776 | 0.416 | 0.606 | 0.414 | 0.578 | 0.436 | 0.373 | 0.357

— the supplement of paper PMC10065799, “High-throughput profiling of sequence recognition by tyrosine kinases and SH2 domains using bacterial peptide display” (eLife, 2023)
